We go through 1 molecule from article PMC8259991, “Transgenerational inheritance of centromere identity requires the CENP-A N-terminal tail in the C. elegans maternal germ line” (PLoS Biology, 2021).

The assay addresses T1, KNL-2 central region (aa 269-470), recombinant (C. elegans, UniProt O44548 269-470).
T1 construct: The His9-MBP tag was cut off with TEV protease after mixing and before the pull-down; also called KNL-2 central fragment; source: E. coli BL21-Star, purified (MBP FF crude column, desalting); not shown: His9-MBP, N-terminal, cleaved
T1 sequence (looked up): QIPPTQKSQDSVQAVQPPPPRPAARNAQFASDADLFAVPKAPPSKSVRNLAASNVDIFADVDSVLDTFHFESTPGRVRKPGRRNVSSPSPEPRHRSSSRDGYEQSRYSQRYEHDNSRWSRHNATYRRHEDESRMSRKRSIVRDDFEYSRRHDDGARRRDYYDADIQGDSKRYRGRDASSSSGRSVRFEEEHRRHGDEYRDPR
Kind of assay: pull-down; recombinant proteins mixed in equimolar amounts, 1 h at RT, TEV digestion 30 min at RT, glutathione magnetic agarose beads 1 h at RT; SDS-PAGE with Coomassie stain. The following applies: both partners purified.

B1: CENP-A N-terminal tail (aa 1-179) fused to GST (domain or fragment, C. elegans, UniProt P34470 1-179, looked up)
chain: MADDTPIIEEIAEQNESVTRIMQRLKHDMQRVTSVPGFNTSAAGVNDLIDILNQYKKELEDDAANDYTEAHIHKIRLVTGKRNQYVLKLKQAEDEYHARKEQARRRASSMDFTVGRNSTNLVDYSHGRHHMPSYRRHDSSDEENYSMDGTNGDGNRAGPSNPDRGNRTGPSSSDRVRMR
notes: CENP-A homolog HCP-3, C. elegans, residues 1-179 (N-terminal tail); The His9-MBP tag was cut off with TEV protease after the two proteins had been mixed and before the pull-down on glutathione beads; also called His9-MBP-TEV-CENP-A^1-179-GST; GST::CENP-A N-terminal tail; source: E. coli BL21-Star, purified (Ni-charged chelating HiTrap column, desalting); not shown: His9-MBP, N-terminal, cleaved; …
B1: the binding result is listed as “binds”.
